Holding throughout (test): cell-based or functional assay
The target of assay [1] is enterovirus 71 (EV71) virions (enterovirus 71).
Assay [2] shares this target. The source holds these as a separate data set.
Assay [3] shares this target. This is another data set of the same source.

5 molecules from patent publication US20160333075A1 (MAB EXPLORATIONS SDN BHD, published 2016) can be followed below.

B1: Recombinant chimeric E18 VL + VH (antibody, V domains shown)
VH: QIQLVQSGPELKKPGETVKISCKASGYTFTRYGMSWVKQAPGKGLKWMGWINTYSGVPTYADDFKGRFAFSLETSASTAYLQINNLKNEDTATYFCARRGYSNYYPMDFWGQGTSVTVSS
VL: DIKMTQSPSSMYASLGERVTITCKASQDIKSYLSWYQQKPWKSPKTLIYYAKNLADGVPSRFSGSGFGQDYSLTISSLESDDTATYYCLQHGESPYTFGSGTKLEIKR
As to B1, in assay [1], the “IC50 in ATCC cells relative to the parental antibody” value was approximately 2 fold and the “IC50 in NIBSC cells relative to the parental mouse antibody” value is approximately 5 fold. For the same molecule, in assay [2], the “Inhibitory concentration 50 (IC50), Vero ATCC” value turned out to be 0.585 µg/mL; the “Inhibitory concentration 50 (IC50), Vero NIBSC” value is 0.966 µg/mL; the “end point PRNT50, Vero ATCC” value worked out at 625 ng/mL; the “end point PRNT50, Vero NIBSC” value worked out at 2500 ng/mL.

B2: hVL1 + hVH1 E19 (antibody, V domains shown)
VH: DVQLQESGPGLVKPSQTLSLTCTVSGYSITSGFYLNWIRQHPCKGLEWIGYINYGGSINYNPSLKSRVTISRDTSKNQFSLKLSSVTAADTAVYYCATMPNSWYFDVWGRGTLVTVSS
VL: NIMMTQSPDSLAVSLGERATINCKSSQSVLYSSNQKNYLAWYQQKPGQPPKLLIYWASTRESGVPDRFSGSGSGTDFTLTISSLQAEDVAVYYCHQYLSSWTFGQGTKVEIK
As for B2, in assay [3], the “Average IC50” value was 0.0892 µg/mL, the “IC50 (#1)” value came to 0.0565 µg/mL and the “IC50 (#2)” value was determined as 0.122 µg/mL.

B3: hVL1 + hVH2 E19 (antibody, V domains shown)
VH: DVQLQESGPGLVKPSQTLSLTCTVSGYSITSGFYLNWIRQHPGKKLEWIGYINYGGSINYNPSLKSRVTISRDTSKNQFSLKLSSVTAADTAVYYCATMPNSWYFDVWGTGTLVTVSS
VL: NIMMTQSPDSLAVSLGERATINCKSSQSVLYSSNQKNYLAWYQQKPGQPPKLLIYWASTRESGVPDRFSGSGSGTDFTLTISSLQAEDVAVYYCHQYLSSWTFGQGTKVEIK
With B3, in assay [3], the “Average IC50” value is 0.119 µg/mL, the “IC50 (#1)” value stood at 0.118 µg/mL and the “IC50 (#2)” value amounted to 0.121 µg/mL.

B4: hVL1 + hVH3 E19 (antibody, V domains shown)
VH: EVQLVESGPGLVKPSQTLSLTCTVSGYSITSGFYLNWVRQHPGKKLEWIGYINYGGSINYNPSLKSRVSISRDTSKNQFSLKLTSVTAADTAVYYCATMPNSWYFDVWGTGTLVTVSS
VL: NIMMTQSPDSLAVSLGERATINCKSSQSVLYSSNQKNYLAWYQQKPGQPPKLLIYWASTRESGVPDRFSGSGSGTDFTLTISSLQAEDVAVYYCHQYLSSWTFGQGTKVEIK
B4: in assay [3], the “Average IC50” value was 0.0896 µg/mL, the “IC50 (#1)” value was 0.0965 µg/mL and the “IC50 (#2)” value came to 0.0826 µg/mL.

B5: Recombinant chimeric E20 VL + VH (antibody, V domains shown)
VH: EVQLVESGGGLVKPGGSLKLSCAASGFTFNIYAMSWVRQTPEKRLEWVATISDGGSYTYYPDNVKGRFTISRDNAKNNLYLQMSHLKSEDTAMYYCVRDRGNYYSRAFPYAYWGQGTLVTVSA
VL: SIVMTQTPKFLPVSAGDRVTMTCKASQSVGNNVAWYQQKSGQSPKLLIYYASNRYTGVPDRFTGSGSGTDFTFTISSVQVEDLAVYFCQQHYSSPPTFGAGTKLELK
B5: in assay [2], the “Inhibitory concentration 50 (IC50), Vero ATCC” value was 3.18 µg/mL; the “end point PRNT50, Vero ATCC” value turned out to be 5000 ng/mL; the “end point PRNT50, Vero NIBSC” value is more than 10000 ng/mL.
